Experimental data reported in patent publication US8865657B2, “Compositions and methods for inactivating or suppressing inflammatory cells” (New York University, priority 2005, dated 2014).

Legend:
Hepatocytes = test: cAMP radioimmunoassay, intracellular cAMP in hepatocytes; format: cell-based, rat
Procedure: (§1) Liver cell isolation. […] The nonparenchymal cell-containing supernatant was saved.
(§2) Cell culture. […] HepG2 cells were used on day 3 after plating.
(§3) Cell treatment. […] Role of calcium and cyclic AMP. […] J Immunol 174: 2981-2989). […] IBMX was dissolved in dimethyl sulphoxide (DMSO).
(§4) cAMP radioimmunoassay. For cAMP determination, liver cell cultures were incubated in culture medium without FCS at 37° C. for 0-90 min. The cultures were then placed on ice, and the reaction was stopped by aspiration of the incubation medium followed by the addition of 1 ml of ice cold 65% (vol/vol) ethanol. The cells were scraped into Eppendorf tubes and centrifuged at 10000 g for 10 min at 4° C. The supernatants were dried in SC110 Speedvac Concentrator (Savant, Farmingdale, N.Y.) at room temperature, and the dried extracts were dissolved in assay buffer for cAMP determination with cAMP [^125I] Direct Biotrak Assay from Amersham Biosciences (Piscataway, N.J.), according to the instructions of the manufacturer. Samples were analyzed with a Beckman LS 6000 scintillation counter. The cAMP level in each sample was normalized to the protein concentration and expressed as fmol/μg of protein. Ethanol-precipitated cell pellets were diluted with 0.15 M NaOH and the protein concentration was measured with the Micro BCA Protein Assay Kit (Pierce Chemical Co., Rockford, Ill.) according to manufacturer's instructions.

Kupffer cells [1] = test: cAMP radioimmunoassay, intracellular cAMP in Kupffer cells; format: cell-based, rat; settings: for effect on cAMP level, agent alone: RAP 500 nM alone, lactoferrin 100 nM
Procedure: as §1, §2, §3, §4

HepG2 cells = test: cAMP radioimmunoassay, intracellular cAMP in HepG2 cells; format: cell-based, human
Procedure: as §2, §3, §4

Liver endothelial cells = test: cAMP radioimmunoassay, intracellular cAMP in liver endothelial cells; format: cell-based, rat
Procedure: as §1, §2, §3, §4

Kupffer cells [2] = test: Inositol-1,4,5-trisphosphate (IP3) assay in Kupffer cells; format: cell-based, rat; settings: data not shown
Procedure: as §1, §2
Inositol-1,4,5-trisphosphate (IP3) assay. Intracellular IP3 levels were measured with a IP3 [^3H] Biotrak Assay (Amersham Biosciences, Piscataway, N.J.). Liver cells (3.0×10^6 per well) were incubated for 0, 30, 60, 120 sec with 100 nM CSP in RPMI-1640 containing 10 mM LiCI. The plates were then placed on ice, and the reaction was stopped by aspiration of the incubation medium followed by the addition of 20% ice-cold perchloric acid. After incubation on ice for 20 min, the cells were scraped into Eppendorf tubes. The precipitated protein was removed by centrifugation at 10000 g for 15 min at 4° C. The supernatant was neutralized to pH 7.5 by titrating with ice-cold 1.5 M KOH containing 60 mM HEPES buffer. The precipitated KClO4 was removed by centrifugation at 5000 g for 15 min at 4° C. Radioactivity in the supernatant was measured with a Beckman LS 6000 scintillation counter.

Molecule | cAMP (Hepatocytes; Hepatocytes, 100 nM lactoferrin, 30 min at 37° C., mean±S.E.) | effect on cAMP concentration (Hepatocytes; hepatocytes) | cAMP (Kupffer cells [1]; Kupffer cells, 100 nM lactoferrin, 30 min at 37° C., serum-free RPMI-1640, mean±S.E.) | effect on cAMP level, agent alone (Kupffer cells [1]; Kupffer cells) | cAMP (HepG2 cells; HepG2 cells, 100 nM lactoferrin, 30 min at 37° C., mean±S.E.) | effect on cAMP concentration (HepG2 cells; human hepatoma cell line HepG2) | cAMP (Liver endothelial cells; Liver endothelial cells, 100 nM lactoferrin, 30 min at 37° C., mean±S.E.) | effect on cAMP concentration (Liver endothelial cells; endothelial cells) | effect on the CSP-induced generation of cAMP (Kupffer cells [1]; added 10 min before 50 nM CSP (30 min), RAP 500 nM) | effect on IP3, agent alone (Kupffer cells [2]; RAP alone) | effect on the CSP-induced IP3 increase (Kupffer cells [2]; preincubation 10 min with 500 nM RAP before CSP)
Lactoferrin: lactoferrin (LF; from bovine colostrum), another LRP-1 ligand (protein, UniProt P24627 20-708, looked up) Lactotransferrin: APRKNVRWCTISQPEWFKCRRWQWRMKKLGAPSITCVRRAFALECIRAIAEKKADAVTLDGGMVFEAGRDPYKLRPVAAEIYGTKESPQTHYYAVAVVKKGSNFQLDQLQGRKSCHTGLGRSAGWIIPMGILRPYLSWTESLEPLQGAVAKFFSASCVPCIDRQAYPNLCQLCKGEGENQCACSSREPYFGYSGAFKCLQDGAGDVAFVKETTVFENLPEKADRDQYELLCLNNSRAPVDAFKECHLAQVPSHAVVARSVDGKEDLIWKLLSKAQEKFGKNKSRSFQLFGSPPGQRDLLFKDSALGFLRIPSKVDSALYLGSRYLTTLKNLRETAEEVKARYTRVVWCAVGPEEQKKCQQWSQQSGQNVTCATASTTDDCIVLVLKGEADALNLDGGYIYTAGKCGLVPVLAENRKSSKHSSLDCVLRPTEGYLAVAVVKKANEGLTWNSLKDKKSCHTAVDRTAGWNIPMGLIVNQTGSCAFDEFFSQSCAPGADPKSRLCALCAGDDQGLDKCVPNSKEKYYGYTGAFRCLAEDVGDVAFVKNDTVWENTNGESTADWAKNLNREDFRLLCLDGTRKPVTEAQSCHLAVAPNHAVVSRSDRAAHVKQVLLHQQALFGKNGKNCPDKFCLFKSETKNLLFNDNTECLAKLGGRPTYEEYLGTEYVTAIANLKKCSTSPLLEACAFLTR | 2.61 ± 0.09 fmol/μg protein | no significant effect | 14.10 ± 2.10 fmol/μg protein | no significant effect | 6.50 ± 0.07 fmol/μg protein | no significant effect | 5.58 ± 0.30 fmol/μg protein | no significant effect |  |  | 
RAP: Recombinant human RAP, universal inhibitor of ligand binding to LRP-1 (protein, UniProt P30533 35-357, looked up) Alpha-2-macroglobulin …: YSREKNQPKPSPKRESGEEFRMEKLNQLWEKAQRLHLPPVRLAELHADLKIQERDELAWKKLKLDGLDEDGEKEARLIRNLNVILAKYGLDGKKDARQVTSNSLSGTQEDGLDDPRLEKLWHKAKTSGKFSGEELDKLWREFLHHKEKVHEYNVLLETLSRTEEIHENVISPSDLSDIKGSVLHSRHTELKEKLRSINQGLDRLRRVSHQGYSTEAEFEEPRVIDLWDLAQSANLTDKELEAFREELKHFEAKIEKHNHYQKQLEIAHEKLRHAESVGDGERVSRSREKHALLEGRTKELGYTVKKHLQDLSGRISRARHNEL |  |  |  | had no effect |  |  |  |  | blocked | had no effect | prevented this increase
